Where “and” joins values, the source holds several entries; their conditions need not be identical. Identical values can stand only once. Like-named read-outs stand apart in the source and are kept apart here.
T1: hTFIIH p62 PH-D (pleckstrin homology domain of the p62 subunit of human TFIIH) (human, UniProt P32780 1-108)
T1 sequence: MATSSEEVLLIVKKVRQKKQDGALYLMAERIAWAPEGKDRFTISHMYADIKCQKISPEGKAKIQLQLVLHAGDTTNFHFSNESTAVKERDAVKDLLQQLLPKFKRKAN

B1: hTFIIEα(351−439) (longer construct with STDE and acidic regions, NMR titration) (domain or fragment)
chain: GSDSESETSESDDDSPPRPAAVAVHKREEDEEEDDEFEEVADDPIVMVAGRPFSYSEVSQRPELVAQMTPEEKEAYIAMGQRMFEDLFE
B2: 6H–hTFIIEα wild type (full-length hTFIIEα) (natural protein)
chain: MADPDVLTEVPAALKRLAKYVIRGFYGIEHALALDILIRNSCVKEEDMLELLKFDRKQLRSVLNNLKGDKFIKCRMRVETAADGKTTRHNYYFINYRTLVNVVKYKLDHMRRRIETDERDSTNRASFKCPVCSSTFTDLEANQLFDPMTGTFRCTFCHTEVEEDESAMPKKDARTLLARFNEQIEPIYALLRETEDVNLAYEILEPEPTEIPALKQSKDHAATTAGAASLAGGHHREAWATKGPSYEDLYTQNVVINMDDQEDLHRASLEGKSAKERPIWLRESTVQGAYGSEDMKEGGIDMDAFQEREEGHAGPDDNEEVMRALLIHEKKTSSAMAGSVGAAAPVTAANGSDSESETSESDDDSPPRPAAVAVHKREEDEEEDDEFEEVADDPIVMVAGRPFSYSEVSQRPELVAQMTPEEKEAYIAMGQRMFEDLFE
B3: GST–p62(1−108) (GST-tagged p62 PH-D) (domain or fragment)
chain: T1 sequence
B4: GST–p62(1−238) (domain or fragment)
chain: not shown
B5: GST–p62(1−333) (domain or fragment)
chain: not shown
B6: hTFIIEα AC-D (C-terminal acidic domain of the human TFIIEα subunit, residues 378–439) (domain or fragment)
chain: EEDEEEDDEFEEVADDPIVMVAGRPFSYSEVSQRPELVAQMTPEEKEAYIAMGQRMFEDLFE
B7: FLAG-tagged hTFIIH p62 PH-D, wild type (domain or fragment)
chain: T1 sequence

How the values were obtained:
[1] = molecular target: T1, hTFIIH p62 PH-D (pleckstrin homology …); experiment: NMR titration
[2] = molecular target: full-length GST–p62(1−548) (human, UniProt P32780 1-548); experiment: pull-down
[3] = molecular target: B2; experiment: pull-down
[4] = molecular target: B2; experiment: pull-down; remark: listed apart in the source

Kd [1] | binding result [3] | Binder | also measured
400 ± 43 nM |  | B1 | 
 |  | B2 | binding result [2]: binds
 | binds | B3 | 
 | binds | B4 | 
 | binds | B5 | 
376 nM and 237 nM |  | B6 | 
2120 ± 192 nM |  | EEEDDEFEEVADDP [hTFIIEα AC-D(381−394) peptide (N-terminal tail only)] | 
 |  | B7 | binding result [4]: binds

From article PMC2275666 (The EMBO Journal, 2008)
